Experimental findings from patent US20210388087A1 (Chugai, published 2021) are described below.

B1: H183/L072 VL F96T (antibody, name in Kabat numbering, V domains shown)
VH: QVQLVESGGGLVQPGRSLRLSCAASGFTFSNAWMHWVRQAPGKGLEWVAQIKDKGNAYAAYYAPSVKGRFTISRDDSKNSIYLQMNSLKTEDTAVYYCHYVHYASASTVLPAFGVDAWGQGTTVTVSS
VL: DIVMTQSPLSLPVTPGEPASISCQASQELVHMNRNTYLHWYQQKPGQAPRLLIYKVSNRFPGVPDRFSGSGSGTDFTLKISRVEAEDVGVYYCAQGTSVPTTFGQGTKLEIK
notes: Dual-Ig
B2: H183/L072 VL G91L (antibody, name in Kabat numbering, V domains shown)
VH: B1 VH
VL: B1 VL with G96L, T101F
notes: Dual-Ig
B3: H183/L072 VL G91F (antibody, name in Kabat numbering, V domains shown)
VH: B1 VH
VL: B1 VL with G96F, T101F
notes: Dual-Ig
B4: H183/L072 VL G91Q (antibody, name in Kabat numbering, V domains shown)
VH: B1 VH
VL: B1 VL with G96Q, T101F
notes: Dual-Ig
B5: H183/L072 VL G91E (antibody, name in Kabat numbering, V domains shown)
VH: B1 VH
VL: B1 VL with G96E, T101F
notes: Dual-Ig
B6: H183/L072 VL G91P (antibody, name in Kabat numbering, V domains shown)
VH: B1 VH
VL: B1 VL with G96P, T101F
notes: Dual-Ig
B7: H183/L072 VL F96W (antibody, name in Kabat numbering, V domains shown)
VH: B1 VH
VL: B1 VL with T101W
notes: Dual-Ig
B8: H183/L072 VL G91H (antibody, name in Kabat numbering, V domains shown)
VH: B1 VH
VL: B1 VL with G96H, T101F
notes: Dual-Ig
B9: H183/L072 VL G91R (antibody, name in Kabat numbering, V domains shown)
VH: B1 VH
VL: B1 VL with G96R, T101F
notes: Dual-Ig
B10: H183/L072 VL G91I (antibody, name in Kabat numbering, V domains shown)
VH: B1 VH
VL: B1 VL with G96I, T101F
notes: Dual-Ig
B11: H183/L072 VL G91D (antibody, name in Kabat numbering, V domains shown)
VH: B1 VH
VL: B1 VL with G96D, T101F
notes: Dual-Ig
B12: H183/L072 VL G91N (antibody, name in Kabat numbering, V domains shown)
VH: B1 VH
VL: B1 VL with G96N, T101F
notes: Dual-Ig
B13: H183/L072 VL F96V (antibody, name in Kabat numbering, V domains shown)
VH: B1 VH
VL: B1 VL with T101V
notes: Dual-Ig
B14: H183/L072 VL G91A (antibody, name in Kabat numbering, V domains shown)
VH: B1 VH
VL: B1 VL with G96A, T101F
notes: Dual-Ig
B15: H183/L072 VL G91M (antibody, name in Kabat numbering, V domains shown)
VH: B1 VH
VL: B1 VL with G96M, T101F
notes: Dual-Ig
B16: H183/L072 VL G91S (antibody, name in Kabat numbering, V domains shown)
VH: B1 VH
VL: B1 VL with G96S, T101F
notes: Dual-Ig
B17: H183/L072 VL G91K (antibody, name in Kabat numbering, V domains shown)
VH: B1 VH
VL: B1 VL with G96K, T101F
notes: Dual-Ig

Numbering of substitutions follows the chain as printed.

In this test the target is T1, Human CD137 ECD (human).
T1 construct: entry includes C-terminal His-tag and biotin acceptor peptide; also called human CD137 extracellular domain; 4-1BB
T1 sequence (chain, as listed by the source limits assumed): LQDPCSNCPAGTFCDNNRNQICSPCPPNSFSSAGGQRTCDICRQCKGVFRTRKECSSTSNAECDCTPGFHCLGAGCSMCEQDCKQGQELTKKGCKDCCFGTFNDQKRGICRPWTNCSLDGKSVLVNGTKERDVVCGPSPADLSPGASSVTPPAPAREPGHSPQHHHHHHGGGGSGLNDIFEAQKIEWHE
Briefly: Biacore SPR, vs parent H183/L072.
Turning to B1, the “fold change of affinity” value stood at 0 fold. Take B2: the “fold change of affinity” value came to 0 fold.

As for B3, the “fold change of affinity” value amounted to 0 fold. Turning to B4, the “fold change of affinity” value turned out to be 0 fold.

Take B5: the “fold change of affinity” value amounted to 0 fold. With B6, the “fold change of affinity” value stood at 0 fold. B7: the “fold change of affinity” value worked out at 0 fold. Turning to B8, the “fold change of affinity” value is 0 fold. For the molecule B9, the “fold change of affinity” value came to 0 fold. In the case of B10, the “fold change of affinity” value stood at 0 fold. As for B11, the “fold change of affinity” value came out at 0 fold. Consider B12, for which the “fold change of affinity” value is 0 fold. Regarding B13, the “fold change of affinity” value is 0 fold. Regarding B14, the “fold change of affinity” value stood at 0.4 fold. Consider B15, for which the “fold change of affinity” value is 0 fold. With B16, the “fold change of affinity” value was found to be 0 fold.

With B17, the “fold change of affinity” value came out at 0 fold.
